Changes are numbered by the printed parent chain.

This is an account of results in publication PMC3950713.

Experiment in all cases: MST
In one data set the target is T1, HpDprA(5-225) (Helicobacter pylori 26695, UniProt O25100 5-225).
T1 sequence: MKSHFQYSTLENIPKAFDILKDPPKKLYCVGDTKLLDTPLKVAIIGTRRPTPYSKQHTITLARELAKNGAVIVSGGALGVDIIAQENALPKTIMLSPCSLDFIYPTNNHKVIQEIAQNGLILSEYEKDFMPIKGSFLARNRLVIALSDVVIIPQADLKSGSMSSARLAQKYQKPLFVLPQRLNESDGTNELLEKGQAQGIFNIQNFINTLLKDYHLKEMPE

Another data set has as its target T2, HpDprA(5-217)K137E (Helicobacter pylori 26695, UniProt O25100 5-217, K137E).
T2 sequence: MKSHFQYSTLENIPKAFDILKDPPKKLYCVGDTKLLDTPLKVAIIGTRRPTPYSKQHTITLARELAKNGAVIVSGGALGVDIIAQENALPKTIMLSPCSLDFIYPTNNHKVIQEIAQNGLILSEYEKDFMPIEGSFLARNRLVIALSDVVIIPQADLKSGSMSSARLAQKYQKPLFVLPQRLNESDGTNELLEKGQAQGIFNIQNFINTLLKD

The target of the next data set is T3, HpDprA(5-217)Y108E (Helicobacter pylori 26695, UniProt O25100 5-217, Y108E).
T3 sequence: T2 sequence with Y104E, E133K

A further data set has as its target T4, HpDprA(5-217)R143E (Helicobacter pylori 26695, UniProt O25100 5-217, R143E).
T4 sequence: T2 sequence with E133K, R139E

In another data set the target is T5, HpDprA(5-217)R52E/R143E (Helicobacter pylori 26695, UniProt O25100 5-217, R52E;R143E).
T5 sequence: T2 sequence with R48E, E133K, R139E

In the next data set the target is T6, HpDprA(5-217)WT (Helicobacter pylori 26695, UniProt O25100 5-217).
T6 sequence: T2 sequence with E133K

As to TTTTTTTTTTTTTTTTTTTTTTTTTTTTTTTTTTT (ssDNA) [dT35], the Kd with HpDprA(5-225) came out at 30.6 ± 0.998 nM; with HpDprA(5-217)K137E it was 7220 ± 216 nM; with HpDprA(5-217)Y108E, 351 ± 6.88 nM; with HpDprA(5-217)R143E, 5470 ± 246 nM; in the data set with HpDprA(5-217)WT it was 31.5 ± 0.806 nM. Moreover, the binding result in the data set with HpDprA(5-217)R52E/R143E is listed as “no binding”.

The term Kd denotes the constant that tells how readily two partners part at equilibrium. Read a low Kd as a tighter complex.
